What was measured:
[1] = system: mice with LPS plus sciatic nerve axotomy; assay: LPS (1 mg/kg daily) plus sciatic nerve axotomy in mice: microglia activation and motor neuron death; format: in vivo, mouse; conditions: LPS 1 mg/kg daily i.p. plus axotomy
Procedure: FIG. 15: Example peptide D reduces microglia activation in lumbar spinal cord of mice with LPS plus sciatic nerve axotomy. Mice underwent LPS administration (1 mg/kg, daily, i.p.) plus sciatic nerve axotomy on day 0 and tissues were collected and fixed on day 7 post-surgery. Iba-1 staining of lumbar spinal cord of mice in each indicated group were counterstained with DAPI. 20 mg/kg of peptide D was injected daily through the i.p. route.
FIG. 16: Example peptide D prevents motor neuron death in ventral horn of spinal cord (L6) of mice with LPS plus sciatic nerve axotomy. Mice underwent LPS treatment (1 mg/kg, daily, i.p.) plus sciatic nerve axotomy on day 0 and tissue was collected and fixed on day 7 post-surgery. Markers of (A) ChAT staining (red) indicating motor neurons and (B) NeuN staining (green) counterstained with DAPI indicated alpha motor neurons in ventral horn of mice in each group. […]
Although neurodegeneration was detected in spinal cord of mice treated with a high dose of LPS (5 mg/kg, i.p.) plus sciatic nerve axotomy, motor neuron death was not observed in this model. […]
Since LPS causes systematic inflammation, microglia activation in ventral horn of spinal cord was first detected by staining with an Iba-1 antibody. […]

TDP-43 [2] = molecular target: TDP-43 (Homo sapiens, UniProt Q13148); assay: Sodium arsenite induced TDP-43 and phosphoTDP-43 accumulation and PARP cleavage in SH-SY5Y cells; format: cell-based; conditions: 1 mM sodium arsenite for 3 hours
Procedure: FIG. 5. Synthetic peptides derived from CK-1δ block TDP-43 phosphorylation, aggregation and partially rescue cell death in different cellular models. […] DAPI (Blue) staining was used to determine nuclear localization. […] Representative immunoblots showing efficient siRNA knockdown of CK-1δ in SH-SY5Y cells. […] (C) Representative immunoblots showing effective blocking of TDP-43 phosphorylation and aggregation by 20 μM peptide mixture in SH-SY5Y cells, but not in HEK293 cells with ethacrynic acid (EA) treatment. (D) Dose response of peptide mixture on blocking TDP-43 aggregation in primary cultured neurons treated with 20 μM ethacrynic acid. Quantification of insoluble TDP-43 expression was shown on the right. […] The significance among the groups was calculated by one-way ANOVA, *p<0.05. The statistical significance of the difference between scramble peptides and peptide mixture groups was calculated by student's t test, #p<0.05. […] Significant differences among the groups was calculated by One-way ANOVA, *p<0.05. Significance between scramble peptides and peptide mixture group was calculated by student's t test, #p<0.05. (G) Peptide D and the peptide mixture reduces TDP-43 phosphorylation and aggregation in SH-SY5Y cells following sodium arsenite treatment. […] TDP-43, phosphoTDP-43, PARP, and actin in the soluble and insoluble fraction were analyzed by western blotting. […]

TDP-43 [3] = molecular target: TDP-43 (Mus musculus, UniProt Q921F2); assay: Sodium arsenite induced TDP-43 and phosphoTDP43 aggregates in HL-1 cells; format: cell-based; parameters: endogenous in cells; host or cells: HL-1 cells (cardiomyocytes); conditions: 0.05 mM sodium arsenite 16 hours
Procedure: FIG. 12. Example peptide D reduces TDP-43 and phosphoTDP43 aggregates in HL-1 cells following sodium arsenite treatment. Western blot analysis of protein expression (TDP-43, phosphoTDP-43, PARP and actin) in either soluble or insoluble fractions of HL-1 cells with 16 h treatment of sodium arsenite (0.05 mM).
In order to evaluate the function of example peptide D on alleviation of TDP-43 proteinopathies in cardiomyocytes, 0.05 mM of sodium arsenite was employed to treat HL-1 cells for 16 hours to induce TDP-43 and phosphoTDP43 aggregates. […] 20 μM of peptide D treatment in HL-1 cells under the same treatment conditions reduced insoluble aggregates of TDP-43 and phosphoTDP-43.

TDP-43 (Mus musculus, UniProt Q921F2), sequence (Q921F2 whole entry): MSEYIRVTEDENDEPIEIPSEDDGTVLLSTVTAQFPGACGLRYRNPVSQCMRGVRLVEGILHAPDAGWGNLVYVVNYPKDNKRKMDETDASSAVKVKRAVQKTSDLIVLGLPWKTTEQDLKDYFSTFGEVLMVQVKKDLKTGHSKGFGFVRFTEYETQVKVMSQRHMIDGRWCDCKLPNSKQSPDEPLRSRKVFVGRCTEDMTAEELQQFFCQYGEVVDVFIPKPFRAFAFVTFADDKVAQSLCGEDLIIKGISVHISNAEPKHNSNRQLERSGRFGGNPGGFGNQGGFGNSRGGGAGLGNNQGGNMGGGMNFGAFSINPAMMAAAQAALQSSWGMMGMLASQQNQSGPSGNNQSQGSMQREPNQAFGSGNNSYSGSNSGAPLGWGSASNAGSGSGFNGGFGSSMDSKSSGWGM
TDP-43 (Homo sapiens, UniProt Q13148), sequence (Q13148 whole entry): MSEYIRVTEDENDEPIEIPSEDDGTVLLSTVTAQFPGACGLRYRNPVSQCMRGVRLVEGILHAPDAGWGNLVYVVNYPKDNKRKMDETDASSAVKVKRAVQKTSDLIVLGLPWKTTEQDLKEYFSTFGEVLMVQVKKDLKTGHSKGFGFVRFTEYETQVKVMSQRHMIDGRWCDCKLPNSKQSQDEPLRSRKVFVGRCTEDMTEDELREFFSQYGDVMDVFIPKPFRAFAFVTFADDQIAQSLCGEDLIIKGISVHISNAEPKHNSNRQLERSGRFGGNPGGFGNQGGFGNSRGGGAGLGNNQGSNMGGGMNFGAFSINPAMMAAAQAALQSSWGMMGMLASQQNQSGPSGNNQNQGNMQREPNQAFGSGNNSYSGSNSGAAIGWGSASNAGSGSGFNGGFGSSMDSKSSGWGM

peptide D: candidate peptide from a CK-1δ binding region for TDP-43, truncated HIV-1 TAT domain added at the N-terminal (YGRKKRRQRRRGFSYDYVFDWNMLK)
general microglia activation in lumbar spinal cord (Iba-1) ([1]; day 7, 20 mg/kg daily i.p.): reduced
motor neuron death (ChAT and NeuN staining) ([1]; day 7 post-surgery): less motor neuron death
PARP cleavage caused by sodium arsenite (TDP-43 [2]): less PARP cleavage
insoluble TDP-43 and phosphoTDP-43 (TDP-43 [2]): reducing
insoluble aggregates of TDP-43 and phosphoTDP-43 (TDP-43 [3]; 20 μM peptide): reduced
PARP cleavage product (TDP-43 [3]; treated vs untreated cells): reduced
